# Measured values: the RNAGym collection of RNA variant scans (doi:10.1073/pnas.2313332121)
# B1: TPR t1 (parent)
# chain: GACCAAUCUGCCCUCAGAGCUCGAGAACAUCUUCGGAUGCAGAGGAGGCAGGCUUCGGUGGCGCGAUAGCGCCAACGUCCUCAACCUCCAAUGCAUCCCACCACAUGAUGAUGCCUGAAGAGCCUUGGUUUUUUG
# Variants of: B1
# Assay: polymerase ribozyme fitness, log enrichment relative to wild type (log ratio); higher = more active; in vitro selection for triplet polymerase activity
# Procedure, shortened: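 Mutant libraries for each subunit of a heterodimeric triplet polymerase ribozyme were made by PCR and then transcribed. Each library underwent one round of in vitro selection in triplicate: annealing with a biotinylated primer, the partner subunit and triplets, frozen incubation at −7 °C, gel excision of extended constructs, streptavidin-bead capture and RT-PCR. Input and output libraries were Illumina-sequenced, and only genotypes with ≥10 input reads and ≥1 read per output were kept. Fitness is the logarithm, base 2, of genotype enrichment over wild-type enrichment, computed from inverse-variance-weighted replicate averages.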
row,Variant,polymerase ribozyme fitness (log ratio)
1,C85U C89G,-1.76
2,G19A C40U U112A,-0.444
3,U9A A118G,0.108
4,C20U G48U G57U G60A,-2.57
5,A26U C56A,-4.03
6,C76A A105U C124A,-1.25
7,G10U U14A U132A,-1.64
8,C15U C72A,-1.07
9,G19U G110U,-5.11
10,C15U G71A,-2.11
11,C34A C56A U78C C104U,-2.07
12,C11U G135A,-1.27
13,G36A U78A C82G U125G,-2.73
14,G39U C76U,-0.958
15,C11A G47A G77C A84G G128A,-4.94
16,C89U U96A,-1.3
17,C53U C72U A111U,-3.11
18,C8G U38A U54G C62A C98A C123U,-7.56
19,G61A G71U A95U U106G G120U,-5.9
20,C40G G63A,-1.91
21,A50U G135U,-2.36

row,Variant,polymerase ribozyme fitness (log ratio)
1,U33G C72G C86A A91C,-7.55
2,U14G C73U A90G C124A,1.54
3,G61U U106A,0.146
4,A5U C49U C70U,-1.06
5,C8G C73U C79U,0.882
6,G63U G117A,-1.66
7,C79A C114G,-4.53
8,C3U U7A A37C G71C,-0.976
9,C56U C79U U92C U112A,-0.412
10,A18U A41C C72G,-2.61
11,C28G C64U U81A G93U C101U U112G,-5.16
12,C76A C102A,-3.94
13,G39U C114U,-2.86
14,C56G G71U G120A G127A,-4.03
15,G10U C34A G69U G122A,0.552
16,C13U C56U C72G C80U C82U C86U U112C,-3.52
17,C12U G48U C94U,-1.04
18,C8U U9C G52U U55C U59C,0.781
19,A5C C40G,-1.78
20,G44A C79A U125A,-3.2
21,C22A A111C A119U,-6.95

row,Variant,polymerase ribozyme fitness (log ratio)
1,G48C G63A C101U,-0.648
2,C56A U59G,-1.14
3,G61U C86U G135U,-1.31
4,G61A C124U,1.51
5,U59C C86U G127C,-2.09
6,C8G C56A C94U,0.74
7,G117C C123U,-4.89
8,C20A A37U U54A,-3.54
9,G10A C72U,-0.532
10,U7G A18G C20A A43G C72G,-5.03
11,C56A G69A U133C,-2.92
12,A37G C72U,-0.261
13,C73A C97A,-4.87
14,C62A U133G,-2.87
15,A46G C49U C86A G93A,-2.56
16,C70G U112A,-1.98
17,C8G A66G C85A C114U,-3.3
18,C34U G60U,-3.24
19,A5U U54G C79A G110C,-6.31
20,C70U C89A A90G U92A,-6.08
21,U9G C53G C115A G127U,-0.417

row,Variant,polymerase ribozyme fitness (log ratio)
1,C11U A18G A50U U96A C98U G110A A121G U134G,-5.84
2,A5C A75G U130G U133A,-0.35
3,A18C G77C,-2.76
4,U9C G60U,0.0949
5,G77A C88U,-0.0927
6,A66U C97U G120U C123U,-0.305
7,G60C G128A,-2.48
8,C3G C8A G113C G127C,-2.92
9,A50G C70U A111U,-4.72
10,U78A C85U U112A,0.505
11,G61U C89U U92G,-3
12,G58A C102U C114A,-4.78
13,G63C C72G,-5.46
14,G61C G69U,-1.37
15,A43G A50C G57U,-2.8
16,G10A C11U C40U C97A G120A,-4.4
17,A37U C89U A108G,-3.18
18,G45C G60C A84G,-2.3
19,G42U A74U,-2.19
20,C40U C49A C89G,-2.46
